39 molecules from paper PMC314469, “Protein Interaction Networks by Proteome Peptide Scanning” (PLoS Biology, 2004) can be followed below.

T1: Myo5 SH3 (MYO5_YEAST), Q04439
T1 chain: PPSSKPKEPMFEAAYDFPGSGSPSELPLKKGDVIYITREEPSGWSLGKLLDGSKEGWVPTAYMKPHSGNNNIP

B1: YGR062C 88-101 (peptide)
chain: ELRKLVQPITPIIK
B2: YHR109W 353-366 (peptide)
chain: EFDMLLLPFIPSID
B3: YER081W 252-265 (peptide)
chain: DFVTLHVPATPETE
B4: YNL118C 54-67 (peptide)
chain: DFIKLMNPTLPSLK
B5: YML005W 159-172 (peptide)
chain: ELLSFLSPGKPSKG
B6: YKR041W 168-181 (peptide)
chain: EPATLPLPGTPTLA
B7: YHR108W 433-446 (peptide)
chain: DLLGLSTPQSPTNS
B8: YNL059C 225-238 (peptide)
chain: DLMALKYPYFPTKM
B9: YLR454W 1338-1351 (peptide)
chain: ELRTLFVPLIPSVT
B10: YBR123C 27-40 (peptide)
chain: DEFTLDLPRIPSLE
B11: YIL109C 92-105 (peptide)
chain: DPNAYMQPQVPVQM
B12: YMR313C 491-504 (peptide)
chain: EPEPLMSPVPPSSA
B13: YPL242C 282-295 (peptide)
chain: DFNKFERPNIPVEE
B14: YGR154C 125-138 (peptide)
chain: ELYYLNDPKYPGTK
B15: YGR070W 171-184 (peptide)
chain: DPNQLSTPPTPKSA
B16: YNR028W 128-141 (peptide)
chain: EETEMLAPKLPEEN
B17: YKR079C 211-224 (peptide)
chain: EAIKLGVPKGPLFA
B18: YGR068C 274-287 (peptide)
chain: DLSVHTSPHGPIGS
B19: Q0115 378-391 (peptide)
chain: DLSYYLRPIKPFNT
B20: YNL286W 144-157 (peptide)
chain: DLKEFNGPEPPIKR
B21: YCR091W 173-186 (peptide)
chain: ELFTFDMPTDPSSF
B22: YDR432W 85-98 (peptide)
chain: EAHQHHQPPEPQPY
B23: YHR186C 271-284 (peptide)
chain: DELLLMSPELPADL
B24: YGL003C 167-180 (peptide)
chain: EFSPHSTPVTPRRL
B25: YLR342W 92-105 (peptide)
chain: DFSSYGPPGTPGYD
B26: YPL020C 565-578 (peptide)
chain: DLIHLDSPQQPNGY
B27: YLR131C 69-82 (peptide)
chain: ELRDLDIPLVPSPK
B28: YBR221C 343-356 (peptide)
chain: ELEDFAFPDTPTIV
B29: YLR399C 169-182 (peptide)
chain: DARPFLQPVDPVKL
B30: YOR307C 21-34 (peptide)
chain: DPSLYQIPEPPRGG
B31: YHR036W 272-285 (peptide)
chain: EAFKLPKPWSPNSH
B32: YNL278W 118-131 (peptide)
chain: ELAEFTDPSSPVSE
B33: YER172C 104-117 (peptide)
chain: DFRLHYYPKDPSNV
B34: YPR039W 19-32 (peptide)
chain: DFPLYKSPAFPSSS
B35: YPL127C 99-112 (peptide)
chain: EAGDFEQPKGPAGA
B36: YER162C 705-718 (peptide)
chain: EARPYSEPSEPEDS
B37: YLR073C 184-197 (peptide)
chain: EAYRLNYPELPRLT
B38: YER036C 364-377 (peptide)
chain: EADGLVQPVVPDKV
B39: YPL176C 44-57 (peptide)
chain: EEMGMEEPQAPEAF

For this assay, the target named is T1, Myo5 SH3 (MYO5_YEAST), Q04439. Description: SPOT array.
In turn, B1 came in with a normalised SPOT signal, Boehringer light units (BLU); mean over the file's lines of this peptide of 170. The same measure for B2: 249.

B3: the normalised SPOT signal, Boehringer light units (BLU); mean over the file's lines of this peptide came to 190. The same measure for B4: 152. The same measure for B5: 57.4; for B6: 61.8; for B7: 91.9. With B8 the figure was 139; with B9, 294. With B10, the normalised SPOT signal, Boehringer light units (BLU); mean over the file's lines of this peptide turned out to be 181. With B11 the figure was 160. With B12 the figure was 215; with B13, 212; with B14, 0.

In turn, B15 returned a normalised SPOT signal, Boehringer light units (BLU); mean over the file's lines of this peptide of 166. With B16 the figure was 81.6; with B17, 130; with B18, 186. The same measure for B19: 161; for B20: 126. The same measure for B21: 44.9. Molecule B22 had a normalised SPOT signal, Boehringer light units (BLU); mean over the file's lines of this peptide of 0. With B23 the figure was 16. With B24 the figure was 114; with B25, 108; with B26, 220. The molecule B27 showed a normalised SPOT signal, Boehringer light units (BLU); mean over the file's lines of this peptide of 75.3. The same measure for B28: 255; for B29: 179. With B30 the figure was 98.8; with B31, 141. With B32 the figure was 189.

The molecule B33 came in with a normalised SPOT signal, Boehringer light units (BLU); mean over the file's lines of this peptide of 77.7.

Molecule B34 had a normalised SPOT signal, Boehringer light units (BLU); mean over the file's lines of this peptide of 173.

On to B35, for which the normalised SPOT signal, Boehringer light units (BLU); mean over the file's lines of this peptide was 49.8. Molecule B36 had a normalised SPOT signal, Boehringer light units (BLU); mean over the file's lines of this peptide of 208. With B37 the figure was 125; with B38, 75.1; with B39, 128.
